The supplement of paper PMC9170038

Tested on: MS2 coat protein
Assay: apparent KD of MS2 coat protein; designed switch direction (-1 OFF switch, 1 ON switch): -1; higher = weaker reporter binding
How it was run: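 The buffer was Tris-HCl pH 7.5 with KCl, MgCl2, BSA, DTT, tRNA and Tween-20. In it, SNAP-549-labelled MS2 coat protein was titrated in doubling steps from 0.7 or 1.5 nM to 3 µM over chip-bound RNA switches transcribed by stalled E. coli RNA polymerase on Illumina chips. Apparent KD is the per-design median over clusters of curve fits to normalised fluorescence.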

[1] = input ligand: microRNA oligo, concentration not stated
[2] = Eterna round: R95, input ligand: FMN 200 uM
[3] = Eterna round: R95, input ligand: microRNA oligo, concentration not stated
[4] = Eterna round: R95, input ligand: none

| Sequence | apparent KD of MS2 coat protein (input ligand: FMN 200 uM) | apparent KD of MS2 coat protein (input ligand: none) | apparent KD of MS2 coat protein [1] | apparent KD of MS2 coat protein [2] | apparent KD of MS2 coat protein [3] | apparent KD of MS2 coat protein [4] |
| --- | --- | --- | --- | --- | --- | --- |
| UUAUUAGCAGGAUAUAUCCAGGAUUACAUGAGGAUCACCCAUGUGGCCGCUUGAAAUUCUAUAGAAGGGCUUUAUU [Mod of ViennaUCT 36 - Jieux - Exclusion 5] (Eterna round: R97, puzzle: Exclusion 5) | 52.7 nM | 45.8 nM |  |  |  |  |
| UUAUUAUAUGUAGGAUAUGCAUAUUGUUGUUAUGCAGAAGGACAUGAGGAUCACCCAUGUGUAUUAUUGUUAUAUAUUAUAUAU [Title] (Eterna round: R96, puzzle: Exclusion NG 1) |  |  | 16.5 nM |  |  |  |
| UUAUUAUAUGUAGGAUAUGCGUAUUAUUGUUAUGCAGAAGGACAUGAGGAUCACCCAUGUAUAUUAUUGUUAUAUAUUGUAUAU [Title] (Eterna round: R96, puzzle: Exclusion NG 1) | 28.9 nM | 21.7 nM | 19.8 nM |  |  |  |
| UUAUUAUGUGUAGGAUAUGCAUAUUAUUAUUAUGCAGAAGGACAUGAGGAUCACCCAUGUAUAUUAUUAUUAUAUAUUAUAUAU [Title] (Eterna round: R96, puzzle: Exclusion NG 1) |  |  | 25.1 nM |  |  |  |
| UUAUUGCAAGCAAGAUCCCACAUGAGGAUCACCCAUGUGCUCGUCUUAUAAGGUACUGUGACGAAAGUCACGGUACC [Sensor 3, v1 - 99] (puzzle: Sensor v3, turn-off variant 1) |  |  |  | 26 nM | 462 nM | 30.6 nM |
| UUCAUGUGAGGAUAUAGUACUCUUUCUAUUAUUUUUGAGUAUUAGAAGGCACAUGAGGAUCACCCAUGUAGUAC [Ex4 - 3 - 42] (puzzle: Exclusion 4) |  |  |  |  | 40.8 nM |  |
| UUCCAUUCAGGAUAUCGAUGGAAUCACAUGAGGAUCACCCAUGUGAUACCUAGGUGACCGCGAGAAGGGAAAGGGU [EX5 B.7] (Eterna round: R97, puzzle: Exclusion 5) | 13.8 nM | 12.9 nM |  |  |  |  |
| UUCCUACUUGAGGAUCACCCAAGUCAGGAUAUCCAUAGCCGACACUCUUUUCGGAACGGGAGAAGGGACUUGGU [Tiisatbi] (Eterna round: R97, puzzle: Exclusion 1) | 97.5 nM | 37.2 nM |  |  |  |  |
| UUCGUGCAGCUUUGCUGUACGCGUACAUGAGGAUCACCCAUGUAGGAUAUGGUACGCUUUGCGUGCUAGAAGGAUAUGUGGAGG [JL EXNG3 1.35] (Eterna round: R96, puzzle: Exclusion NG 3) | 59.1 nM | 45.2 nM | 33.6 nM |  |  |  |
| UUCGUGCUGCUUUGCUGUACGAGUACAUGAGGAUCACCCAUGUAGGAUAUGGUACGCUUUGCGUGCUAGAAGGAUAUGUGUAGC [salish99_ExNG3_r04_505] (Eterna round: R96, puzzle: Exclusion NG 3) | 26.7 nM | 25.4 nM | 18.9 nM |  |  |  |
| UUCUUGUGAGGAUAUCAGUAGUAAAUAAAUAAAAUUACUACUGAGAAGGCACAUGAGGAUCACCCAUGUUCCUU [salish99_ex3_r3_092] (puzzle: Exclusion 4) |  |  |  |  | 15 nM |  |
| UUCUUUAUACGAGGAUAUCAUACAUGAGGAUCACCCAUGUAACUGGGUCUAUUUUUAUAUAAUAUUGAGAAGGCGUUUUGCUAU [JR_ExcNG2_Sub071] (Eterna round: R96, puzzle: Exclusion NG 2) | 52.6 nM | 36.8 nM | 31.1 nM |  |  |  |
| UUCUUUAUACGAGGAUAUCAUACAUGAGGAUCACCCAUGUGGCUGGGUCUGUUUUUAUAUAAUAUUGAGAAGGCGUUUUUCUAU [JR_ExcNG2_Sub073] (Eterna round: R96, puzzle: Exclusion NG 2) | 291 nM | 78.9 nM | 79.8 nM |  |  |  |
| UUGAAGAUAGGAUAUACGAGGAGAGGAGAGAGAAGGUGAGGACAUGAGGAUCACCCAUGUAGAAGGAUCAGGAA [JR_Exclu2_Sub065] (puzzle: Exclusion 2) |  |  |  |  | 75.4 nM |  |
| UUGAAGUCAGGAUAUCGUUAAUUUAGUUGUUUGUAUUAGUUCGAGAAGGGACAUGAGGAUCACCCAUGUAAGUA [Ex4 #47] (Eterna round: R97, puzzle: Exclusion 4) | 32.7 nM | 40.5 nM |  |  |  |  |
| UUGGGCAGAGGAUAUCGUACGUAGCACAUGAGGAUCACCCAUGUGGCCAGCCGCUAAACAUGAGAAGGUUGUGUAC [Eternabot (Original) Solution 8] (Eterna round: R97, puzzle: Exclusion 5) | 17.6 nM | 14.3 nM |  |  |  |  |
| UUGUGCACGCUGCGAUCCUACAUGAGGAUCACCCAUGUGGUCUGGUGGCGUGGGUCACCGGACUUGGCUCGUCUUGA [salish99_S_TOV1_R5_068] (Eterna round: R97, puzzle: Sensor, turn-off variant 1) | 118 nM | 129 nM |  |  |  |  |
| UUGUGCACGCUGCGGUCCUACAUGAGGAUCACCCAUGUGGUCUGGUGGCGUGGGUCACCGGACUUGGCUCGUCUUGC [salish99_S_TOV1_R5_059] (Eterna round: R97, puzzle: Sensor, turn-off variant 1) | 22.5 nM | 22.8 nM |  |  |  |  |

| Sequence | apparent KD of MS2 coat protein (input ligand: FMN 200 uM) | apparent KD of MS2 coat protein (input ligand: none) | apparent KD of MS2 coat protein [1] | apparent KD of MS2 coat protein [2] | apparent KD of MS2 coat protein [3] | apparent KD of MS2 coat protein [4] |
| --- | --- | --- | --- | --- | --- | --- |
| UUGUUAUAUGUAGGAUAUGCAUAUUAUUAUUAUGCAGAAGGACAUGAGGAUCACCCAUGUAUAUUGUUAUUAUAUAUUAUAUAU [Title] (Eterna round: R96, puzzle: Exclusion NG 1) |  |  | 19 nM |  |  |  |
| UUGUUAUAUGUAGGAUAUGCAUAUUAUUAUUAUGCAGAAGGACAUGAGGAUCACCCAUGUAUGUUGUUGUUAUAUAUUAUAUAU [Title] (Eterna round: R96, puzzle: Exclusion NG 1) |  |  | 17.9 nM |  |  |  |
| UUGUUAUAUGUAGGAUAUGCGUAUUAUUAUUAUGCAGAAGGACAUGAGGAUCACCCAUGUAUGUUGUUGUUAUAUAUUAUAUAU [Title] (Eterna round: R96, puzzle: Exclusion NG 1) |  |  | 18.1 nM |  |  |  |
| UUGUUAUAUGUAGGAUAUGCGUAUUGUUAUUAUGCAGAAGGACAUGAGGAUCACCCAUGUAUAUUAUUAUUAUAUAUUAUAUAU [Title] (Eterna round: R96, puzzle: Exclusion NG 1) | 87.8 nM | 27.4 nM | 22.2 nM |  |  |  |
| UUGUUCCGUGUAGGAUAUUGGUCUCCCUCGGGCCGAGAAGGACAUGAGGAUCACCCAUGUAUGCUAUUAUCGCGCGUGGCGCAU [Design 92] (Eterna round: R96, puzzle: Exclusion NG 1) | 209 nM | 58.9 nM | 48.5 nM |  |  |  |
| UUGUUGUAUGUAGGAUAUGCAUAUUGUUAUUAUGCAGAAGGACAUGAGGAUCACCCAUGUAUAUUAUUAUUAUAUGUUAUAUAU [Title] (Eterna round: R96, puzzle: Exclusion NG 1) |  |  | 17.9 nM |  |  |  |
| UUGUUGUAUGUAGGAUAUGCAUAUUGUUAUUAUGCAGAAGGACAUGAGGAUCACCCAUGUAUGUUAUUAUUAUGUGUUAUGUGU [Title] (Eterna round: R96, puzzle: Exclusion NG 1) |  |  | 30.3 nM |  |  |  |
| UUGUUGUAUGUAGGAUAUGCGUAUUGUUAUUAUGCAGAAGGACAUGAGGAUCACCCAUGUAUAUUAUUAUUAUAUAUUAUAUAU [Title] (Eterna round: R96, puzzle: Exclusion NG 1) |  |  | 20.1 nM |  |  |  |
| UUGUUUUCCGCAGGAUAUGCUCCUCCAUUACUAGCAGAAGGGCGUUGAACAUGAGGAUCACCCAUGUAUGUAAUUGCUUAUUGC [JR_ExcNG1_Sub073] (Eterna round: R96, puzzle: Exclusion NG 1) | 19.7 nM | 18.9 nM | 14.8 nM |  |  |  |
| UUUAAACAUGAGGAUCACCCAUGUUAGGAUAUACGAAUGCAGACACACACGGAUGCAAGUAGAAGGAACCAUGC [Design #8] (Eterna round: R97, puzzle: Exclusion 1) | 44.1 nM | 44.1 nM |  |  |  |  |
| UUUAAUCGUGACAUGGGUGACAUGAGGAUCACCCAUGUCACAAGCUUCUUGCUCGUCUUAUAAUUAACCCAUGUCAC [LRO Sensor-off var1-12 mod of Stov1-13-A1 by Brourd] (Eterna round: R97, puzzle: Sensor, turn-off variant 1) | 18.8 nM | 18.3 nM |  |  |  |  |
| UUUAAUUUUUUUUUUUUACAAGCUUUUUGCUCGUCUUAUACAUGAGGAUCACCCAUGUAAAUGGGAGAUAAAUUAUC [JMF 17] (puzzle: Sensor v3, turn-off variant 2) |  |  |  | 95.9 nM | 52.4 nM | 92.3 nM |
| UUUAAUUUUUUUUUUUUACAAGCUUUUUGCUCGUCUUAUACAUGAGGAUCACCCAUGUAAAUGGGAGGUAAAUUAUC [JMF 71] (puzzle: Sensor v3, turn-off variant 2) |  |  |  | 80.7 nM | 133 nM | 113 nM |
| UUUAAUUUUUUUUUUUUACAAGCUUUUUGCUCGUCUUAUACAUGAGGAUCACCCAUGUAGAUGGAGGGUAAAUUAUC [JMF 86] (puzzle: Sensor v3, turn-off variant 2) |  |  |  | 17.4 nM | 27.9 nM | 14.5 nM |
| UUUAAUUUUUUUUUUUUACAAGCUUUUUGCUCGUCUUAUACAUGAGGAUCACCCAUGUAGAUGGGAGAUAAAUUAUC [JMF 20] (puzzle: Sensor v3, turn-off variant 2) |  |  |  | 33.8 nM | 85.3 nM | 40.5 nM |
| UUUAAUUUUUUUUUUUUACAAGCUUUUUGCUCGUCUUAUACAUGAGGAUCACCCAUGUAGAUGGGAGGUAAAUUAUC [JMF 75] (puzzle: Sensor v3, turn-off variant 2) |  |  |  | 29.1 nM | 160 nM | 25.7 nM |
| UUUAAUUUUUUUUUUUUACAAGCUUUUUGCUCGUCUUAUACAUGAGGAUCACCCAUGUAGGUGAGAAAUGAAUUAUC [JMF 94] (puzzle: Sensor v3, turn-off variant 2) |  |  |  | 26.5 nM | 152 nM | 29.5 nM |
